Laboratory results reported in the nanobody polyreactivity screen of Harvey et al. (2022).

Assay: yeast display, Sf9 membrane polyspecificity reagent, FACS + sequencing; frameworks hold sequencing errors
Method in brief: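 Polyreactivity labels are assigned by the sorting gate from which each nanobody was recovered. The gates were low and high (top ~1%), set on anti-HA fluorescence for expression and streptavidin fluorescence for reagent binding. Before sorting, galactose-induced (36–48 hours) yeast display cells were stained for 1 hour at 4 °C with 10% biotinylated, detergent-solubilized Sf9 membrane reagent.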

In the case of “QVQLVESGGGLVQAGGSLRLSCAASGSIFEVNAMGWYRQAPGKERELVAAISCSGGSTYYADSVKGRFTISRDNAKNTVYLQMNSLKPEDTAVYYCAARPAGYSGRKLYYWGQGTQVTVSS”, the “polyreactivity (PSR sort gate)” value is reported as “low polyreactivity”.
For “QVQLVESGGGLVQAGGSLRLSCAASGSIFEVNAMGWYRQAPGKERELVAAISFSGDSTYYADSVKGRFTISRDNAKNTVYLQMNSLKPEDTAVYYCAAEQYVAWIDYLYDYWGQGTQVTVSS”, the “polyreactivity (PSR sort gate)” value was “high polyreactivity”.
With “QVQLVESGGGLVQAGGSLRLSCAASGSIFEVYAMGWYRQAPGKERELVAAINYTGGSTYYADSVKGRFTISRDNAKNTVYLQMNSLKPEDTAVYYCARDTSGIGTRYDYWGQGTQVTVSS” the “polyreactivity (PSR sort gate)” value was “low polyreactivity”.
With “QVQLVESGGGLVQAGGSLRLSCAASGSIFEWYAMGWYRQAPGKERELVADISSLGSTYYADSVKGRFTISRDNAKNTVYLQMNSLKPEDTAVYYCNTSYIIWYDSWGQGTQVTVSS” the “polyreactivity (PSR sort gate)” value was “low polyreactivity”.
For “QVQLVESGGGLVQAGGSLRLSCAASGSIFEYNAMGWYRPAPGKERELVAAISWSSGTTYYADSVKGRFTISLDNAKNSVYLQMNSLKPEDTAVYYCNAGRYGKDSDYWGQGTQVTVSS”, the “polyreactivity (PSR sort gate)” value was “low polyreactivity”.
With “QVQLVESGGGLVQAGGSLRLSCAASGSIFEYTGMGWYRQAPGKERELVAAITTTGTTDYADSVKGRFTISRDNAKNTVYLQMNSLKPEDTAVYYCAADYTYYYKVEYDYWGQGTQVTVSS” the “polyreactivity (PSR sort gate)” value was “low polyreactivity”.
For “QVQLVESGGGLVQAGGSLRLSCAASGSIFFAYDMGWYRQAPGKERELVAAISNIDGSTYYADSVKGRFTISRDNAKNTVYLQMNSVKPEDTAVYYCATRVYYLYDYWGQGTQVTVSS”, the “polyreactivity (PSR sort gate)” value was “low polyreactivity”.
In the case of “QVQLVESGGGLVQAGGSLRLSCAASGSIFFDNAMGWYRQAPGKERELVAAIDSSGGSTYYADSVKGRFTISRDNAKNTVYLQMNSLKPEDTAVYYCAREQYVPSPYSFFDEFEYWGQGTQVTVSS”, the “polyreactivity (PSR sort gate)” value is reported as “low polyreactivity”.
With “QVQLVESGGGLVQAGGSLRLSCAASGSIFFDNAMGWYRQAPGKERELVATINSGGNTHYADSVKGRFTISRDNAKNTVYLQMNSLKPEDTAVYSCAADFRSDLVDGYNYWGQGTQVTVSS” the “polyreactivity (PSR sort gate)” value was “low polyreactivity”.
With “QVQLVESGGGLVQAGGSLRLSCAASGSIFFDNAMGWYRQAPGKERELVATINSGGNTHYADSVKGRFTISRDNAKNTVYLQMNSLKPEDTAVYYCAADFPSDLVDGYNYWGQGTQVTVSS” the “polyreactivity (PSR sort gate)” value was “low polyreactivity”.
For “QVQLVESGGGLVQAGGSLRLSCAASGSIFFDYALGWYRQAPGKERELVARITSSDSTNYADSVKGRFTISRDNAKNTVYLQMNSLKPEDTAVYYCNKDSTGDGYDYWGQGTQVTVSS”, the “polyreactivity (PSR sort gate)” value was “low polyreactivity”.
With “QVQLVESGGGLVQAGGSLRLSCAASGSIFFFNAMGWYRQAPGKERELVAAISESGTSTYYADSVKGRFTISRDNAKNTVYLQMNSLKPEDAAVYYCNVVFRYAYGVYYTPEFYYWGQGTQVTVSS” the “polyreactivity (PSR sort gate)” value was “low polyreactivity”.
For “QVQLVESGGGLVQAGGSLRLSCAASGSIFFGNAMGLYRQAPGKERELVAAISTTGGSTYYADSVKGRFTISRDNAKNTVYLQMNSLKPEDTAVYYCNADRATWWEQWWYDYWGQGTQVTVSS”, the “polyreactivity (PSR sort gate)” value was “low polyreactivity”.
With “QVQLVESGGGLVQAGGSLRLSCAASGSIFFGYAMGWYRQAPGKEREFVAAITASGVRTYYADSVKGRFTISRDNAKNTVYLQMNSLKPEDTAVYYCAARIGTGVLPARGAKSHMDYWGQGTQVPVSS” the “polyreactivity (PSR sort gate)” value was “low polyreactivity”.
In the case of “QVQLVESGGGLVQAGGSLRLSCAASGSIFFLNAMGWYRQAPGKERELVAAITNVGSTYYADSVKGRFTISRDNAKNTVYLQMNSLKPEDTAVYYCNADPGEVLVGYDYWGQGTEVTVSS”, the “polyreactivity (PSR sort gate)” value is reported as “low polyreactivity”.
For “QVQLVESGGGLVQAGGSLRLSCAASGSIFFLYAMGWYRQAPGKERELVAAISRDGRTNYADSVKGRFTISRDNAKNTVYLQMNSLKPEDTAVYYCAKDGNHPGAVGYGYWGQGTQVTVSS”, the “polyreactivity (PSR sort gate)” value was “low polyreactivity”.
In the case of “QVQLVESGGGLVQAGGSLRLSCAASGSIFFLYAMGWYRQAPGKERELVAGINLSGGSTYYADSVKGRFTISRDNAKNTVYLQMNSLKPEDTAVYYCNAYLPSPYSSSYIFDYDSWGQGTQVTVSS”, the “polyreactivity (PSR sort gate)” value is reported as “low polyreactivity”.
In the case of “QVQLVESGGGLVQAGGSLRLSCAASGSIFFLYTMGWYRQARGKERELVAAITRNGGSTYYADSVKGRFTISRDNAKNTVYLQMNSLKPEDTAVYYCNALRWYSYNYWGQGTQVTVSS”, the “polyreactivity (PSR sort gate)” value is reported as “high polyreactivity”.
With “QVQLVESGGGLVQAGGSLRLSCAASGSIFFNYAMGWYRQAPGKERELVAAISSNGGRTYYADSVKGRFTISRDNAKNTVYLQMNSLKPEDTAVYYCAARVYDYPRFGYWGQGTQVTVSS” the “polyreactivity (PSR sort gate)” value was “high polyreactivity”.
With “QVQLVESGGGLVQAGGSLRLSCAASGSIFFPYAMGWYRQAPGKERELVAAITRSGGRTYYADSVKGRFTISRDNAKNTVYLQMNSLKPEDTAVYYCAAGPWYNFYDSRPWFSYDYWGQGTQVTVSS” the “polyreactivity (PSR sort gate)” value was “low polyreactivity”.
With “QVQLVESGGGLVQAGGSLRLSCAASGSIFFPYAMGWYRQAPGKERELVAASTRSGGRTYYADSVKGRFTISRDNAKNTVYLQMNSLKPEDTAVYYCAAGPWYKFYDWRPWFSYDYWGQGTQVTVSS” the “polyreactivity (PSR sort gate)” value was “low polyreactivity”.
In the case of “QVQLVESGGGLVQAGGSLRLSCAASGSIFFRYAMGWYRPAPGKERELVAAISSSGGSTYYADSVKGRFTISRDNAKNTVYLQMNSLKPEDTAVYYCAARYYSKYYYSPFDYWGQGTQVTVSS”, the “polyreactivity (PSR sort gate)” value is reported as “high polyreactivity”.
With “QVQLVESGGGLVQAGGSLRLSCAASGSIFFRYTMGWYRQAPGKERELVAAITGDGGSTYADSVKGRFTISRDNAKNTVYLQMNSLNPEDTAVYYCAALSTTGIWGTVSTYYYWGQGTQVTVSS” the “polyreactivity (PSR sort gate)” value was “low polyreactivity”.
With “QVQLVESGGGLVQAGGSLRLSCAASGSIFFSNAMGRYRQAPGKERELVAGIRSGGITNYADSVKGRFTISRDNAKNTVYLQMNSLKPEDTAVYYCNADLAPSTPYFYYFPVRRDYWGQGTQVTVSS” the “polyreactivity (PSR sort gate)” value was “low polyreactivity”.
With “QVQLVESGGGLVQAGGSLRLSCAASGSIFFSNTMGWYRQAPGKERELVARITWSGTSTNYADSVKGRFTISRDNAKNTVYLQMNSLKPEDTAVYYCNAGFYTSAGYDYWGQGTQVTVSS” the “polyreactivity (PSR sort gate)” value was “high polyreactivity”.
For “QVQLVESGGGLVQAGGSLRLSCAASGSIFFSNVMGWSRPAPGKERELVAAITRGGGTNYADSVKGRFTISRDNAKNTVYLQMNSLKPEDTAVYYCNRDPQKYRWIPRYDYWGQGTQVTVSS”, the “polyreactivity (PSR sort gate)” value was “low polyreactivity”.
For “QVQLVESGGGLVQAGGSLRLSCAASGSIFFSYAMGWYRQAPGKERELVATITTSGGRTRYADSVKGRFTISRDNAKNTVYLQMNSLKPEETAVYYCAAAPWDAPWSGYEYWGQGTQVTVSS”, the “polyreactivity (PSR sort gate)” value was “high polyreactivity”.
With “QVQLVESGGGLVQAGGSLRLSCAASGSIFFVYAMGWYRQAPGKERELVAGISGRDGSTYYADSVKGRFTISRDNAKNTVYLQMNSLKPEDTAVYYSARVYWGQGTQVTVSS” the “polyreactivity (PSR sort gate)” value was “low polyreactivity”.
With “QVQLVESGGGLVQAGGSLRLSCAASGSIFFWYTMGWYRQAPGKERELVATITGSGSSTTYADSVKGRFTISRDYAKNTVYLQMNSLKPEDTAVYYCAAADIIDHSFPYDYWGQGTQVTVSS” the “polyreactivity (PSR sort gate)” value was “low polyreactivity”.
In the case of “QVQLVESGGGLVQAGGSLRLSCAASGSIFFYNTMGWYRQAPGKERELVAAISASGGRTYYADSVKGRFTISRDNAKNTVYLQMISLKPEDTAVYYCAVRVPYRGYTRYDYWGQGTQVTVSS”, the “polyreactivity (PSR sort gate)” value is reported as “high polyreactivity”.
For “QVQLVESGGGLVQAGGSLRLSCAASGSIFFYNTMGWYRQAPRKERELVAAISSSGRTYYADSVKGRFTISRDNAKNTVYLQMNSLKPEDTAVYYCAKRTWRGYDYWGQGTQVTVSS”, the “polyreactivity (PSR sort gate)” value was “high polyreactivity”.
In the case of “QVQLVESGGGLVQAGGSLRLSCAASGSIFFYYAMGWYRPAPGKERELVAAITSGGTTNYADSVNGRFTISRDNAKNTVYLQMNSLKPEDTAVYYCAVAGPRYAFFEYDYWGQGTQVTVSS”, the “polyreactivity (PSR sort gate)” value is reported as “low polyreactivity”.
With “QVQLVESGGGLVQAGGSLRLSCAASGSIFFYYAMGWYRQAPGKERELVAAINSDGSTNYADSVKGRFTISRDNAKNTVYLQMNSVKPEDTAVYYCAADYVYYYHEYDYWGQGTQVTVSS” the “polyreactivity (PSR sort gate)” value was “low polyreactivity”.
For “QVQLVESGGGLVQAGGSLRLSCAASGSIFFYYAMGWYRQAPGKERELVAAINWTGGRTYYADSVKGRFTISRDNAKNTVYLQMNSLKPEDTAVYYWAAEYYGQHDTYEYWGQGTQVTVSS”, the “polyreactivity (PSR sort gate)” value was “high polyreactivity”.
In the case of “QVQLVESGGGLVQAGGSLRLSCAASGSIFFYYAMGWYRQAPGKERELVAAITGSGGSTYYADSVKGRFTISRDNAKNTVYLQMNSLKPEDTAVYSCAADRTVRAVYYGYGYWGQGTQVTVSS”, the “polyreactivity (PSR sort gate)” value is reported as “low polyreactivity”.
In the case of “QVQLVESGGGLVQAGGSLRLSCAASGSIFGANTMGWYRQAPGKERELVAAISSGGNTYYADSVKGRFTISRDNAKNTVYLQMNSLKPEDTAVYYCNAQTRYRYQYGYLGGTGYNYWGQGTQVTVSS”, the “polyreactivity (PSR sort gate)” value is reported as “low polyreactivity”.
With “QVQLVESGGGLVQAGGSLRLSCAASGSIFGANTMGWYRQAPGKERELVAGITSGARTYYADSVKGRFTISRDNAKNTVYLQMNSLKPEDTAVYYCAAQYAWRRYGYWGQGTQVTVSS” the “polyreactivity (PSR sort gate)” value was “high polyreactivity”.
In the case of “QVQLVESGGGLVQAGGSLRLSCAASGSIFGAYAMGWYRQAPGKERELVAAISSSVDRTYYADSVKGRFTISRDNAKNTVYLQMNSLKPEDTAVYYCAARWGTRDRTKYYYWGQGTQVTVSS”, the “polyreactivity (PSR sort gate)” value is reported as “high polyreactivity”.
With “QVQLVESGGGLVQAGGSLRLSCAASGSIFGDNAMGRYRQAPGKERELVAVISSSGSTYYADSVKGRFTISRDTAMNTVYLQMNSLKAEDTAVYYCNAYEFDWYEEYYYWGQGTQVTVSS” the “polyreactivity (PSR sort gate)” value was “low polyreactivity”.
In the case of “QVQLVESGGGLVQAGGSLRLSCAASGSIFGDNAMGWYRQAPGKERELVAAISGSTGSTNYADSVKGRFTISRDNAKNTVYLQMNSLKPEDTAVYYCNVGGLEYFVFKGVSVPDDYWGQGTQVTVSS”, the “polyreactivity (PSR sort gate)” value is reported as “low polyreactivity”.
In the case of “QVQLVESGGGLVQAGGSLRLSCAASGSIFGDNAMGWYRQAPGKERELVASITWSGGSTFYADSVKGRFTISRDNAQITVYLQMNSLKPEDTAVYYCAADTAEYLYDMDYWGQGTQVTVSS”, the “polyreactivity (PSR sort gate)” value is reported as “low polyreactivity”.
With “QVQLVESGGGLVQAGGSLRLSCAASGSIFGDYAMGWSSQAPGKEGELVAAISRGDGTYYADSVKGRFTISRDNAKNTVYLQMNSLKPEDTAVYYCNAGGRYHAPSGDFWGQGSQVTVSS” the “polyreactivity (PSR sort gate)” value was “low polyreactivity”.
With “QVQLVESGGGLVQAGGSLRLSCAASGSIFGDYAMGWYRQAPGKEREFVAGITRRGGRTYYADSVKGRFTISRDNAKNTVYLQMHSLKPEDTAVYYCNAVYSSSLRSKYDYWGQGTQVTVSS” the “polyreactivity (PSR sort gate)” value was “high polyreactivity”.
